The values that follow come from patent publication US20240294593A1 (Genentech, published 2024).

Usually Kd stands for a measure of binding affinity in units of concentration. Broadly, the koff is the first-order rate constant of dissociation. Read a low koff as a long-lived complex. What is called kon is the second-order rate constant of association.

The labels stand for the following.
B1: H1.114_L1 (antibody, V domains shown)
VH: EVQLVESGGGLVQPGGSLRLSCAASGFTFSSFGMHWVRQAPGKGLEWVSYISSGSSIIYYADSVKGRFTISRDNAKNSLYLQMNSLRAEDTAVYYCARYGRLVWSPDYWGQGTLVTVSS
VL: DIVMTQSPDSLAVSLGERATINCKSSQSLLNSGNQKNYLTWYQQKPGQPPKLLIYWASTRESGVPDRFTGSGSGTDFTLTISSLQAEDVAVYYCQNDYSYPFTFGSGTKLEIKR
notes: also called VH-G103Y; Kabat 95
B2: H1.119_L1 (antibody, V domains shown)
VH: B1 VH with Y99G, G100H
VL: B1 VL
notes: also called VH-G108H; Kabat 96
B3: H1.138_L1 (antibody, V domains shown)
VH: B1 VH with Y99G, L102D
VL: B1 VL
notes: also called VH-L110D; Kabat 98
B4: H1.123_L1 (antibody, V domains shown)
VH: B1 VH with Y99G, G100Y
VL: B1 VL
notes: also called VH-G108Y; Kabat 96
B5: H1.141_L1 (antibody, V domains shown)
VH: B1 VH with Y99G, L102K
VL: B1 VL
notes: also called VH-L110K; Kabat 98
B6: H1.135_L1 (antibody, V domains shown)
VH: B1 VH with Y99G, L102V
VL: B1 VL
notes: also called VH-L110V; Kabat 98
B7: H1.133_L1 (antibody, V domains shown)
VH: B1 VH with Y99G, L102I
VL: B1 VL
notes: also called VH-L110I; Kabat 98
B8: H1.127_L1 (antibody, V domains shown)
VH: B1 VH with Y99G, R101H
VL: B1 VL
notes: also called VH-R109H; Kabat 97
B9: H1.136_L1 (antibody, V domains shown)
VH: B1 VH with Y99G, L102Y
VL: B1 VL
notes: also called VH-L110Y; Kabat 98
B10: H1.128_L1 (antibody, V domains shown)
VH: B1 VH with Y99G, R101S
VL: B1 VL
notes: also called VH-R109S; Kabat 97
B11: H1.139_L1 (antibody, V domains shown)
VH: B1 VH with Y99G, L102A
VL: B1 VL
notes: also called VH-L110A; Kabat 98
B12: H1.117_L1 (antibody, V domains shown)
VH: B1 VH with Y99G, G100T
VL: B1 VL
notes: also called VH-G108T; Kabat 96
B13: H1.116_L1 (antibody, V domains shown)
VH: B1 VH with Y99G, G100S
VL: B1 VL
notes: also called VH-G108S; Kabat 96
B14: H1.129_L1 (antibody, V domains shown)
VH: B1 VH with Y99G, R101G
VL: B1 VL
notes: also called VH-R109G; Kabat 97
B15: H1.130_L1 (antibody, human IgG1, kappa, V domains shown)
VH: B1 VH with Y99G, R101Y
VL: B1 VL
notes: also called VH-R109Y; Kabat 97; copies: 2 + 2
B16: H1.126_L1 (antibody, V domains shown)
VH: B1 VH with Y99G, R101D
VL: B1 VL
notes: also called VH-R109D; Kabat 97
B17: H1.125_L1 (antibody, human IgG1, kappa, V domains shown)
VH: B1 VH with Y99G, R101E
VL: B1 VL
notes: also called VH-R109E; Kabat 97; copies: 2 + 2
B18: H1.137_L1 (antibody, V domains shown)
VH: B1 VH with Y99G, L102W
VL: B1 VL
notes: also called VH-L110W; Kabat 98
B19: H1.115_L1 (antibody, V domains shown)
VH: B1 VH with Y99G, G100A
VL: B1 VL
notes: also called VH-G108A; Kabat 96
B20: H1.124_L1 (antibody, V domains shown)
VH: B1 VH with Y99G, R101K
VL: B1 VL
notes: also called VH-R109K; Kabat 97
B21: H1.131_L1 (antibody, V domains shown)
VH: B1 VH with Y99G, R101I
VL: B1 VL
notes: also called VH-R109I; Kabat 97
B22: H1.134_L1 (antibody, V domains shown)
VH: B1 VH with Y99G, L102F
VL: B1 VL
notes: also called VH-L110F; Kabat 98
B23: H1.118_L1 (antibody, V domains shown)
VH: B1 VH with Y99G, G100Q
VL: B1 VL
notes: also called VH-G108Q; Kabat 96
B24: mAb C H1.19_L1 (antibody, name in Kabat numbering, V domains shown)
VH: B1 VH with F32L, Y99G
VL: DIVMTQSPDSLAVSLGERATINCKSSQSLLNSGNQKNYLTWYQQKPGQPPKLLIYWASTRESGVPDRFTGSGSGTDFTLTISSLQAEDVAVYYCQNDYSYPFTFGSGTKLEIK

Where a chain is given by its changes, count along the chain named. In names and notes the source's numbering stands.

One assay deals with T1, human PD-1-His (human, UniProt Q15116 25-167, limits assumed).
T1 construct: Antigen of the Octet assays; not shown: His tag
T1 sequence (Q15116 25-167 limits assumed): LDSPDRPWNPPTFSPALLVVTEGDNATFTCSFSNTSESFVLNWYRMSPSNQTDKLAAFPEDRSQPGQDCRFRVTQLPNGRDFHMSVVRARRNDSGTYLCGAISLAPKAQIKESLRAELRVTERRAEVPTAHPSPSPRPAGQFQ
Nature of the assay: Octet.
As for B1, the equilibrium dissociation constant (Kd) was found to be 592 nM, the off-rate constant (koff) was 0.0875 s⁻¹ and the kon came out at 148000 M⁻¹ s⁻¹.

The molecule B2 had a dissociation constant Kd of 186 nM, an off-rate (koff) of 0.0376 s⁻¹ and a kon of 202000 M⁻¹ s⁻¹.

B3 displayed a Kd of 116 nM, a koff of 0.0128 s⁻¹ and an association rate constant (kon) of 110000 M⁻¹ s⁻¹.

Molecule B4 had an equilibrium dissociation constant (Kd) of 350 nM, an off-rate constant (koff) of 0.0538 s⁻¹ and an on-rate (kon) of 154000 M⁻¹ s⁻¹.

The molecule B5 came in with a Kd of 118 nM, a koff of 0.0132 s⁻¹ and a kon of 112000 M⁻¹ s⁻¹.

For the molecule B6, binding was put at a Kd of 46.7 nM, the dissociation rate constant (koff) turned out to be 0.00685 s⁻¹ and the kon was determined as 147000 M⁻¹ s⁻¹.

B7 yielded a dissociation constant Kd of 49.5 nM, a koff of 0.00753 s⁻¹ and a kon of 152000 M⁻¹ s⁻¹.

Consider B8, for which the dissociation constant (Kd) was determined as 30.8 nM, the koff was 0.00578 s⁻¹ and the on-rate (kon) turned out to be 188000 M⁻¹ s⁻¹.

B9: the Kd was determined as 54.5 nM, the koff came out at 0.00863 s⁻¹ and the association rate constant (kon) stood at 158000 M⁻¹ s⁻¹.

Turning to B10, binding was characterised by a dissociation constant (Kd) of 32.8 nM, the koff came to 0.00608 s⁻¹ and the association rate constant (kon) is 186000 M⁻¹ s⁻¹.

In the case of B11, the Kd worked out at 98.9 nM, the koff turned out to be 0.011 s⁻¹ and the kon was 111000 M⁻¹ s⁻¹.

Consider B12, for which the Kd is 121 nM, the koff is 0.0105 s⁻¹ and the on-rate constant (kon) stood at 86900 M⁻¹ s⁻¹.

B13 displayed an equilibrium dissociation constant (Kd) of 183 nM, an off-rate (koff) of 0.0347 s⁻¹ and a kon of 190000 M⁻¹ s⁻¹.

With B14, the Kd came out at 43.2 nM, the koff is 0.00719 s⁻¹ and the association rate constant (kon) came to 167000 M⁻¹ s⁻¹.

As for B15, the Kd came out at 22.1 nM, the dissociation rate constant (koff) stood at 0.00505 s⁻¹ and the kon is 228000 M⁻¹ s⁻¹.

As for B16, binding was characterised by a dissociation constant (Kd) of 43.1 nM, the off-rate (koff) came to 0.0109 s⁻¹ and the kon worked out at 254000 M⁻¹ s⁻¹.

Turning to B17, binding was characterised by a dissociation constant (Kd) of 18.7 nM, the koff came to 0.0052 s⁻¹ and the association rate constant (kon) was determined as 278000 M⁻¹ s⁻¹.

The molecule B18 yielded an equilibrium dissociation constant (Kd) of 32.6 nM, an off-rate (koff) of 0.0056 s⁻¹ and a kon of 172000 M⁻¹ s⁻¹.

B19: the Kd was 76.7 nM, the off-rate (koff) stood at 0.0116 s⁻¹ and the kon turned out to be 151000 M⁻¹ s⁻¹.

Consider B20, for which the Kd is 48.8 nM, the koff is 0.00674 s⁻¹ and the kon was 138000 M⁻¹ s⁻¹.

Regarding B21, the affinity, expressed as Kd, was 43.5 nM; the off-rate constant (koff) came out at 0.00878 s⁻¹; the on-rate constant (kon) stood at 202000 M⁻¹ s⁻¹.

In the case of B22, the dissociation constant (Kd) was 60.8 nM, the dissociation rate constant (koff) amounted to 0.0088 s⁻¹ and the on-rate constant (kon) was found to be 145000 M⁻¹ s⁻¹.

B23 had a dissociation constant (Kd) of 192 nM, an off-rate constant (koff) of 0.0316 s⁻¹ and a kon of 164000 M⁻¹ s⁻¹.

A further assay has as its target T1, human PD-1-His. Nature of the assay: Octet. The source holds these as a separate data set. (In general: Biolayer interferometry detects binding as a change in optical thickness at a sensor tip.)
With B24, binding was characterised by a dissociation constant (Kd) of 16.7 nM, the dissociation rate constant (koff) is 0.00217 s⁻¹ and the kon came to 130000 M⁻¹ s⁻¹.
